Strand notation (5' to 3'): a small letter for the sugar, then the base; units joined by * are phosphorothioate-linked, units joined directly phosphodiester-linked; [ ] holds rarer units or linkages, { } end groups; capitals alone tell only the bases. m = 2'-O-methyl; r = 2'-OH (RNA)
Assays:
TTR mRNA = TTR mRNA knockdown in primary human hepatocytes by quantitative PCR (Tables 34, 35); type: cell-based; settings: TTR mRNA in PHH, 96 hours after treatment, vs untreated control
Protocol: In one experiment, PHH were cultured and treated with LNPs comprising Cas9 mRNA (SEQ ID NO:1) and a gRNA of interest (See FIG. 29, Table 34), as described in Example 4. The LNPs were prepared using the cross-flow procedure described above and purified and concentrated using PD-10 columns and Amicon centrifugal filter units, respectively. The LNPs were formulated with an N:P ratio of 6.0 and contained Lipid A, Cholesterol, DSPC, and PEG2k-DMG in a 50:38:9:2 molar ratio, respectively. The LNPs comprised a gRNA:mRNA ratio of 1:2, and the cells were treated at a dose of 300 ng (with respect to the amount of mRNA cargo delivered).
(§1) Ninety-six (96) hours following LNP treatment (with biological triplicates for each condition), mRNA was purified from PHH cells using the Dynabeads mRNA DIRECT Kit (ThermoFisher Scientific) according to the manufacturer's protocol. Reverse Transcription (RT) was performed with Maxima reverse transcriptase (ThermoFisher Scientific) and a poly-dT primer. The resulting cDNA was purified with Ampure XP Beads (Agencourt). For Quantitative PCR, 2% of the purified cDNA was amplified with Taqman Fast Advanced Mastermix and 3 Taqman probe sets, TTR (Assay ID: Hs00174914_m1), GAPDH (Assay ID: Hs02786624_g1), and PPIB (Assay ID: Hs00168719_m1). The assays were run on the QuantStudio 7 Flex Real Time PCR System according to the manufacturer's instructions (Life Technologies). Relative expression of TTR mRNA was calculated by normalizing to the endogenous controls (GAPDH and PPIB) individually, and then averaged.
In a separate experiment, TTR mRNA knockdown was evaluated following treatment with LNPs comprising G000480, G000486, and G000502. The LNPs were formulated and PHH were cultured and treated with the LNPs, each as described in the experiment above in this Example with the exception that the cells were treated at a dose of 100 ng (with respect to the amount of mRNA cargo delivered).
as §1, with “(single treatment” for “(with biological triplicates”, “the High Capacity cDNA Reverse Transcription Kit” for “Maxima reverse transcriptase”, “according to the manufacturer's instructions.” for “and a poly-dT primer. The resulting cDNA was purified with Ampure XP Beads (Agencourt).”, “the” for “the purified”

human TTR sequence = assay: Liver editing in humanized TTR mice dosed with LNP formulations (Table 26); type: in vivo, mouse
[1] = LNP dose 300 ng mRNA cargo, gRNA:mRNA 1:2, biological triplicates
[2] = 1, 0.3, or 0.1 mg/kg, Cas9 mRNA (SEQ ID NO: 1) 1:2 by weight to guide, FIG. 28A
[3] = LNP dose 100 ng mRNA cargo, separate experiment
[4] = 1, 0.3, 0.1, or 0.03 mg/kg, Cas9 mRNA (SEQ ID NO: 1) 1:1 by weight to guide, FIG. 26A

Row | Molecule | Avg % Knockdown (TTR mRNA; [1]) [%] | also measured
1 | G000494: TTR sgRNA modified sequence, Human, SEQ ID No. 101; guide sequence of CR003360 (nucleic acid) guide: mG*mU*mG*rArGrUrCrUrGrGrArGrArGrCrUrGrCrArUrGrUrUrUrUrArGrAmGmCmUmAmGmAmAmAmUmAmGmCrArArGrUrUrArArArArUrArArGrGrCrUrArGrUrCrCrGrUrUrArUrCrAmAmCmUmUmGmAmAmAmAmAmGmUmGmGmCmAmCmCmGmAmGmUmCmGmGmUmGmCmU*mU*mU*mU | 91.15 | 
2 | G000499: TTR sgRNA modified sequence, Human, SEQ ID No. 106; guide sequence of CR005303 (nucleic acid) guide: mU*mG*mA*rArUrCrCrArArGrUrGrUrCrCrUrCrUrGrArGrUrUrUrUrArGrAmGmCmUmAmGmAmAmAmUmAmGmCrArArGrUrUrArArArArUrArArGrGrCrUrArGrUrCrCrGrUrUrArUrCrAmAmCmUmUmGmAmAmAmAmAmGmUmGmGmCmAmCmCmGmAmGmUmCmGmGmUmGmCmU*mU*mU*mU | 91.38 | Liver editing, dose response (human TTR sequence; 1, 0.3, or 0.1 mg/kg, Cas9 mRNA (SEQ ID NO: 1) 1:1 by weight to guide, FIG. 27A): A dose response for both editing and serum TTR levels was evident; Liver editing, dose response (human TTR sequence; [2]): A dose response for both editing and serum TTR levels was evident
3 | G000480: TTR sgRNA modified sequence, Human, SEQ ID No. 87; guide sequence of CR003353 (nucleic acid) guide: mA*mA*mA*rGrGrCrUrGrCrUrGrArUrGrArCrArCrCrUrGrUrUrUrUrArGrAmGmCmUmAmGmAmAmAmUmAmGmCrArArGrUrUrArArArArUrArArGrGrCrUrArGrUrCrCrGrUrUrArUrCrAmAmCmUmUmGmAmAmAmAmAmGmUmGmGmCmAmCmCmGmAmGmUmCmGmGmUmGmCmU*mU*mU*mU | 95.19 | Avg % Knockdown (TTR mRNA; [3]): 95.61%; Liver editing, dose response (human TTR sequence; [4]): A dose response for both editing and serum TTR levels was evident; Liver editing, dose response (human TTR sequence; [2]): A dose response for both editing and serum TTR levels was evident
4 | G000488: TTR sgRNA modified sequence, Human, SEQ ID No. 95; guide sequence of CR003346 (nucleic acid) guide: mA*mA*mA*rGrUrUrCrUrArGrArUrGrCrUrGrUrCrCrGrGrUrUrUrUrArGrAmGmCmUmAmGmAmAmAmUmAmGmCrArArGrUrUrArArArArUrArArGrGrCrUrArGrUrCrCrGrUrUrArUrCrAmAmCmUmUmGmAmAmAmAmAmGmUmGmGmCmAmCmCmGmAmGmUmCmGmGmUmGmCmU*mU*mU*mU | 92.77 | Liver editing, dose response (human TTR sequence; [4]): A dose response for both editing and serum TTR levels was evident
5 | G000489: TTR sgRNA modified sequence, Human, SEQ ID No. 96; guide sequence of CR003344 (nucleic acid) guide: mU*mU*mU*rGrArCrCrArUrCrArGrArGrGrArCrArCrUrGrUrUrUrUrArGrAmGmCmUmAmGmAmAmAmUmAmGmCrArArGrUrUrArArArArUrArArGrGrCrUrArGrUrCrCrGrUrUrArUrCrAmAmCmUmUmGmAmAmAmAmAmGmUmGmGmCmAmCmCmGmAmGmUmCmGmGmUmGmCmU*mU*mU*mU | 91.85 | Liver editing, dose response (human TTR sequence; [4]): A dose response for both editing and serum TTR levels was evident
6 | G000502: TTR Cyno specific sgRNA modified sequence, SEQ ID No. 114; guide sequence of CR000689; cross homologous between mouse and cyno (nucleic acid) guide: mA*mC*mA*rCrArArArUrArCrCrArGrUrCrCrArGrCrGrGrUrUrUrUrArGrAmGmCmUmAmGmAmAmAmUmAmGmCrArArGrUrUrArArArArUrArArGrGrCrUrArGrUrCrCrGrUrUrArUrCrAmAmCmUmUmGmAmAmAmAmAmGmUmGmGmCmAmCmCmGmAmGmUmCmGmGmUmGmCmU*mU*mU*mU |  | Avg % Knockdown (TTR mRNA; [3]): 90.94%; Liver editing, dose response (human TTR sequence; [4]): A dose response for both editing and serum TTR levels was evident; Liver editing, dose response (human TTR sequence; [2]): A dose response for both editing and serum TTR levels was evident
7 | G000483: TTR sgRNA modified sequence, Human, SEQ ID No. 90; guide sequence of CR005298 (nucleic acid) guide: mU*mC*mC*rArCrUrCrArUrUrCrUrUrGrGrCrArGrGrArGrUrUrUrUrArGrAmGmCmUmAmGmAmAmAmUmAmGmCrArArGrUrUrArArArArUrArArGrGrCrUrArGrUrCrCrGrUrUrArUrCrAmAmCmUmUmGmAmAmAmAmAmGmUmGmGmCmAmCmCmGmAmGmUmCmGmGmUmGmCmU*mU*mU*mU | 68.78 | 
8 | G000484: TTR sgRNA modified sequence, Human, SEQ ID No. 91; guide sequence of CR003367 (nucleic acid) guide: mA*mG*mA*rCrArCrCrArArArUrCrUrUrArCrUrGrGrArGrUrUrUrUrArGrAmGmCmUmAmGmAmAmAmUmAmGmCrArArGrUrUrArArArArUrArArGrGrCrUrArGrUrCrCrGrUrUrArUrCrAmAmCmUmUmGmAmAmAmAmAmGmUmGmGmCmAmCmCmGmAmGmUmCmGmGmUmGmCmU*mU*mU*mU | 75.22 | 
9 | G000490: TTR sgRNA modified sequence, Human, SEQ ID No. 97; guide sequence of CR003366 (nucleic acid) guide: mA*mA*mA*rUrArGrArCrArCrCrArArArUrCrUrUrArCrGrUrUrUrUrArGrAmGmCmUmAmGmAmAmAmUmAmGmCrArArGrUrUrArArArArUrArArGrGrCrUrArGrUrCrCrGrUrUrArUrCrAmAmCmUmUmGmAmAmAmAmAmGmUmGmGmCmAmCmCmGmAmGmUmCmGmGmUmGmCmU*mU*mU*mU | 78.34 | 
10 | G000493: TTR sgRNA modified sequence, Human, SEQ ID No. 100; guide sequence of CR003368 (nucleic acid) guide: mA*mA*mG*rUrGrCrCrUrUrCrCrArGrUrArArGrArUrUrGrUrUrUrUrArGrAmGmCmUmAmGmAmAmAmUmAmGmCrArArGrUrUrArArArArUrArArGrGrCrUrArGrUrCrCrGrUrUrArUrCrAmAmCmUmUmGmAmAmAmAmAmGmUmGmGmCmAmCmCmGmAmGmUmCmGmGmUmGmCmU*mU*mU*mU | 87.53 | 
11 | G000500: TTR sgRNA modified sequence, Human, SEQ ID No. 107; guide sequence of CR003337 (nucleic acid) guide: mC*mC*mA*rGrUrCrCrArGrCrArArGrGrCrArGrArGrGrGrUrUrUrUrArGrAmGmCmUmAmGmAmAmAmUmAmGmCrArArGrUrUrArArArArUrArArGrGrCrUrArGrUrCrCrGrUrUrArUrCrAmAmCmUmUmGmAmAmAmAmAmGmUmGmGmCmAmCmCmGmAmGmUmCmGmGmUmGmCmU*mU*mU*mU | 92.90 | 
12 | G000567: TTR sgRNA modified sequence, Human, SEQ ID No. 109; guide sequence of CR003352 (nucleic acid) guide: mG*mA*mA*rArGrGrCrUrGrCrUrGrArUrGrArCrArCrCrGrUrUrUrUrArGrAmGmCmUmAmGmAmAmAmUmAmGmCrArArGrUrUrArArArArUrArArGrGrCrUrArGrUrCrCrGrUrUrArUrCrAmAmCmUmUmGmAmAmAmAmAmGmUmGmGmCmAmCmCmGmAmGmUmCmGmGmUmGmCmU*mU*mU*mU | 90.89 | 
13 | G000568: TTR sgRNA modified sequence, Human, SEQ ID No. 110; guide sequence of CR003391 (nucleic acid) guide: mG*mG*mC*rUrGrUrCrGrUrCrArCrCrArArUrCrCrCrArGrUrUrUrUrArGrAmGmCmUmAmGmAmAmAmUmAmGmCrArArGrUrUrArArArArUrArArGrGrCrUrArGrUrCrCrGrUrUrArUrCrAmAmCmUmUmGmAmAmAmAmAmGmUmGmGmCmAmCmCmGmAmGmUmCmGmGmUmGmCmU*mU*mU*mU | 53.44 | 
14 | G000570: TTR sgRNA modified sequence, Human, SEQ ID No. 111; guide sequence of CR003347 (nucleic acid) guide: mC*mA*mU*rUrGrArUrGrGrCrArGrGrArCrUrGrCrCrUrGrUrUrUrUrArGrAmGmCmUmAmGmAmAmAmUmAmGmCrArArGrUrUrArArArArUrArArGrGrCrUrArGrUrCrCrGrUrUrArUrCrAmAmCmUmUmGmAmAmAmAmAmGmUmGmGmCmAmCmCmGmAmGmUmCmGmGmUmGmCmU*mU*mU*mU | 93.38 | 
15 | G000571: TTR sgRNA modified sequence, Human, SEQ ID No. 112; guide sequence of CR005301 (nucleic acid) guide: mG*mU*mC*rArCrArGrArArArCrArCrUrCrArCrCrGrUrGrUrUrUrUrArGrAmGmCmUmAmGmAmAmAmUmAmGmCrArArGrUrUrArArArArUrArArGrGrCrUrArGrUrCrCrGrUrUrArUrCrAmAmCmUmUmGmAmAmAmAmAmGmUmGmGmCmAmCmCmGmAmGmUmCmGmGmUmGmCmU*mU*mU*mU | 96.17 | 
16 | G000572: TTR sgRNA modified sequence, Human, SEQ ID No. 113; guide sequence of CR003385 (nucleic acid) guide: mC*mC*mC*rCrUrArCrUrCrCrUrArUrUrCrCrArCrCrArGrUrUrUrUrArGrAmGmCmUmAmGmAmAmAmUmAmGmCrArArGrUrUrArArArArUrArArGrGrCrUrArGrUrCrCrGrUrUrArUrCrAmAmCmUmUmGmAmAmAmAmAmGmUmGmGmCmAmCmCmGmAmGmUmCmGmGmUmGmCmU*mU*mU*mU | 55.92 | 

From patent US11795460B2, “Compositions and methods for TTR gene editing and treating ATTR amyloidosis” (Intellia Therapeutics, Inc., priority 2017, dated 2023)
